Patent US20250018014A1, “METHOD FOR TREATING AND/OR PREVENTING REGNASE-1-RELATED DISEASE” (OSAKA UNIVERSITY, priority 2018, published 2025)
Positions of bridges follow the written chain, without caps; N, C: chain ends. Non-standard residues stand in square brackets, D forms with d. *: point of attachment. Pyrrolidide = C1CCN(*)C1; dNMeA = CN[C@H](C)C(=O)O

How the values were obtained:
Test in all cases: cell-based or functional assay
[1] = molecular target: T1, C-terminal domain-deleted human Regnase-1 (amino acids 1 to 546) with N-terminal FLAG tag and C-terminal BirA … (human, UniProt Q5D1E8 1-546)
T1 sequence: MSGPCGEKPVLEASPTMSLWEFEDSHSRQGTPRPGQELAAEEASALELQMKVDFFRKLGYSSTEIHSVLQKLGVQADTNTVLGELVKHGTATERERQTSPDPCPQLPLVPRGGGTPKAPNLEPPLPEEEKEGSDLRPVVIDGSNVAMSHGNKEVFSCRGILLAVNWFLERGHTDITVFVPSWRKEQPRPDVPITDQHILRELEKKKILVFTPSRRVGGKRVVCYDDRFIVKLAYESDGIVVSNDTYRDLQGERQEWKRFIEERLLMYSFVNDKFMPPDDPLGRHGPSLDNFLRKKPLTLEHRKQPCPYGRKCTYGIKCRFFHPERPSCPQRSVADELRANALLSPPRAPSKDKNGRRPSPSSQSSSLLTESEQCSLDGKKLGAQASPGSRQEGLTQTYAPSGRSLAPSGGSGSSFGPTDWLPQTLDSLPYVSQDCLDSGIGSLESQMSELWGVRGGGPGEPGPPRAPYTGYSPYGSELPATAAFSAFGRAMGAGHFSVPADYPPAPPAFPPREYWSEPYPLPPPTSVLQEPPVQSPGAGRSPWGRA

[2] = molecular target: T2, C-terminal human Regnase-1 (amino acids 301 to 599) with N-terminal FLAG tag and C-terminal BirA recognition … (human, UniProt Q5D1E8 301-599)
T2 sequence: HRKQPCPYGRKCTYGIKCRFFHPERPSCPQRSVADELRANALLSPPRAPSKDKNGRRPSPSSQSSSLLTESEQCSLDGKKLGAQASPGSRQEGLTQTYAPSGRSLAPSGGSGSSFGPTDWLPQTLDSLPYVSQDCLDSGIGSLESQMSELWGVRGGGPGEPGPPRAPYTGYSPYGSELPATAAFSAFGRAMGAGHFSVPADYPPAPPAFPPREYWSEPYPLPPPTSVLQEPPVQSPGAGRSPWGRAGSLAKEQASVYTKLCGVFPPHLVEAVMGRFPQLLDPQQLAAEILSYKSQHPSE

[3] = molecular target: T3, full-length human Regnase-1 with a FLAG tag on the N-terminal side and a biotin ligase BirA recognition … (human, UniProt Q5D1E8 1-599, biotinylated at the BirA recognition sequence when required)
T3 sequence: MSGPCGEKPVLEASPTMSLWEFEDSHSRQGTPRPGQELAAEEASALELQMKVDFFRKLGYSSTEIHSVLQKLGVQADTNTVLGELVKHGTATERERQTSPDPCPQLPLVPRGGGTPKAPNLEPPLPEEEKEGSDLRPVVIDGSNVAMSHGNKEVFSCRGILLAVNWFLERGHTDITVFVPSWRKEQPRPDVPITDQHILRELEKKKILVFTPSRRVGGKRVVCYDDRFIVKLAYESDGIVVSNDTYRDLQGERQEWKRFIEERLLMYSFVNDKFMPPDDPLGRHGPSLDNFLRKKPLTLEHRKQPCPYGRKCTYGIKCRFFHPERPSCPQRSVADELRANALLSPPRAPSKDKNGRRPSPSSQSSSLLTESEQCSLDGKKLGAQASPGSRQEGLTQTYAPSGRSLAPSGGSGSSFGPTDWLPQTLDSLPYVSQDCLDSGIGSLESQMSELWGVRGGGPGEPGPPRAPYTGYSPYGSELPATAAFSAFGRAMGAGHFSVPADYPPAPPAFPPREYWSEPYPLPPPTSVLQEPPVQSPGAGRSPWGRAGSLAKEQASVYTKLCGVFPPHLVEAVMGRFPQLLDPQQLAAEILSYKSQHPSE

[4] = molecular target: T1, C-terminal domain-deleted human …; remark: listed apart in the source
[5] = molecular target: T2, C-terminal human Regnase-1 (amino acids …); remark: listed apart in the source
[6] = molecular target: T3, full-length human Regnase-1 with a FLAG …; remark: listed apart in the source

B1: PP21 (peptide)
peptide: XNSWYKIWGLD
HELM: PEPTIDE1{[meA].N.S.W.Y.K.I.W.G.L.D.[C1CCN([*:1])C1]}$PEPTIDE1,PEPTIDE1,1:R1-11:R3$$$V2.0
SMILES: CC[C@H](C)[C@@H]1NC(=O)[C@H](CCCCN)NC(=O)[C@H](Cc2ccc(O)cc2)NC(=O)[C@H](Cc2c[nH]c3ccccc23)NC(=O)[C@H](CO)NC(=O)[C@H](CC(N)=O)NC(=O)[C@H](C)N(C)C(=O)C[C@@H](C(=O)N2CCCC2)NC(=O)[C@H](CC(C)C)NC(=O)CNC(=O)[C@H](Cc2c[nH]c3ccccc23)NC1=O
For B1, the “50% inhibition concentration, Regnase-1 phosphorylation by TBK1 (AlphaScreen)” value [1] was 11.7 µM, the “50% inhibition concentration, Regnase-1 phosphorylation by TBK1 (AlphaScreen)” value [2] was 17 µM and the “50% inhibition concentration, Regnase-1 phosphorylation by TBK1 (AlphaScreen)” value [3] was 13.5 µM. The “50% inhibition concentration, Regnase-1 phosphorylation by IKKβ (AlphaScreen)” value [4] was 39.3 µM, the “50% inhibition concentration, Regnase-1 phosphorylation by IKKβ (AlphaScreen)” value [5] was 37.2 µM and the “50% inhibition concentration, Regnase-1 phosphorylation by IKKβ (AlphaScreen)” value [6] was 19.6 µM.

B2: PP22 (peptide)
peptide: XNSWYRIWGLD
HELM: PEPTIDE1{[meA].N.S.W.Y.R.I.W.G.L.D.[C1CCN([*:1])C1]}$PEPTIDE1,PEPTIDE1,1:R1-11:R3$$$V2.0
SMILES: CC[C@H](C)[C@@H]1NC(=O)[C@H](CCCNC(=N)N)NC(=O)[C@H](Cc2ccc(O)cc2)NC(=O)[C@H](Cc2c[nH]c3ccccc23)NC(=O)[C@H](CO)NC(=O)[C@H](CC(N)=O)NC(=O)[C@H](C)N(C)C(=O)C[C@@H](C(=O)N2CCCC2)NC(=O)[C@H](CC(C)C)NC(=O)CNC(=O)[C@H](Cc2c[nH]c3ccccc23)NC1=O
With B2 the “50% inhibition concentration, Regnase-1 phosphorylation by TBK1 (AlphaScreen)” value [1] was 22.8 µM, the “50% inhibition concentration, Regnase-1 phosphorylation by TBK1 (AlphaScreen)” value [2] was 25.8 µM and the “50% inhibition concentration, Regnase-1 phosphorylation by TBK1 (AlphaScreen)” value [3] was 24.3 µM. For the same binder, the “50% inhibition concentration, Regnase-1 phosphorylation by IKKβ (AlphaScreen)” value [4] was 34 µM, the “50% inhibition concentration, Regnase-1 phosphorylation by IKKβ (AlphaScreen)” value [5] was 31 µM and the “50% inhibition concentration, Regnase-1 phosphorylation by IKKβ (AlphaScreen)” value [6] was 15 µM.

B3: PP25 (peptide)
peptide: [dNMeA]EDTPEDDHD-Pyrrolidide
modifications: lactam N-10
In the case of B3, the “50% inhibition concentration, Regnase-1 phosphorylation by TBK1 (AlphaScreen)” value [1] is reported as 16.1 µM, the “50% inhibition concentration, Regnase-1 phosphorylation by TBK1 (AlphaScreen)” value [2] is reported as 16.3 µM and the “50% inhibition concentration, Regnase-1 phosphorylation by TBK1 (AlphaScreen)” value [3] is reported as 18.9 µM. The “50% inhibition concentration, Regnase-1 phosphorylation by IKKβ (AlphaScreen)” value [4] was 47.7 µM, the “50% inhibition concentration, Regnase-1 phosphorylation by IKKβ (AlphaScreen)” value [5] was 27.6 µM and the “50% inhibition concentration, Regnase-1 phosphorylation by IKKβ (AlphaScreen)” value [6] was 27 µM.

B4: PP24 (peptide)
peptide: XWIWDFWNED
HELM: PEPTIDE1{[meA].W.I.W.D.F.W.N.E.D.[C1CCN([*:1])C1]}$PEPTIDE1,PEPTIDE1,1:R1-10:R3$$$V2.0
SMILES: CC[C@H](C)[C@@H]1NC(=O)[C@H](Cc2c[nH]c3ccccc23)NC(=O)[C@H](C)N(C)C(=O)C[C@@H](C(=O)N2CCCC2)NC(=O)[C@H](CCC(=O)O)NC(=O)[C@H](CC(N)=O)NC(=O)[C@H](Cc2c[nH]c3ccccc23)NC(=O)[C@H](Cc2ccccc2)NC(=O)[C@H](CC(=O)O)NC(=O)[C@H](Cc2c[nH]c3ccccc23)NC1=O
With B4 the “50% inhibition concentration, Regnase-1 phosphorylation by TBK1 (AlphaScreen)” value [1] was 27.3 µM, the “50% inhibition concentration, Regnase-1 phosphorylation by TBK1 (AlphaScreen)” value [2] was 34.8 µM and the “50% inhibition concentration, Regnase-1 phosphorylation by TBK1 (AlphaScreen)” value [3] was 35.7 µM. For the same binder, the “50% inhibition concentration, Regnase-1 phosphorylation by IKKβ (AlphaScreen)” value [4] was 4 µM, the “50% inhibition concentration, Regnase-1 phosphorylation by IKKβ (AlphaScreen)” value [5] was 7.2 µM and the “50% inhibition concentration, Regnase-1 phosphorylation by IKKβ (AlphaScreen)” value [6] was 5.3 µM.

B5: PP23 (peptide)
peptide: [dNMeA]PTSSWYKIWD-Pyrrolidide
modifications: lactam N-11
For B5, the “50% inhibition concentration, Regnase-1 phosphorylation by TBK1 (AlphaScreen)” value [1] was 29.7 µM, the “50% inhibition concentration, Regnase-1 phosphorylation by TBK1 (AlphaScreen)” value [2] was 30.7 µM and the “50% inhibition concentration, Regnase-1 phosphorylation by TBK1 (AlphaScreen)” value [3] was 18.8 µM. The “50% inhibition concentration, Regnase-1 phosphorylation by IKKβ (AlphaScreen)” value [4] was greater than 62.1 µM, the “50% inhibition concentration, Regnase-1 phosphorylation by IKKβ (AlphaScreen)” value [5] was greater than 62.1 µM and the “50% inhibition concentration, Regnase-1 phosphorylation by IKKβ (AlphaScreen)” value [6] was 25.6 µM.
